Results from US20210206873A1.

Columns and labels:
[1] = target: human Toll-like Receptor 9 (TLR9) (human) (UniProt Q9NR96); assay: intracellular flow, B cells; PE isotype control, no block
[2] = target: human Toll-like Receptor 9 (TLR9) (human) (UniProt Q9NR96); assay: intracellular flow, pDCs; PE isotype control, no block

Chain of UniProt Q9NR96 (Q9NR96 26-1032): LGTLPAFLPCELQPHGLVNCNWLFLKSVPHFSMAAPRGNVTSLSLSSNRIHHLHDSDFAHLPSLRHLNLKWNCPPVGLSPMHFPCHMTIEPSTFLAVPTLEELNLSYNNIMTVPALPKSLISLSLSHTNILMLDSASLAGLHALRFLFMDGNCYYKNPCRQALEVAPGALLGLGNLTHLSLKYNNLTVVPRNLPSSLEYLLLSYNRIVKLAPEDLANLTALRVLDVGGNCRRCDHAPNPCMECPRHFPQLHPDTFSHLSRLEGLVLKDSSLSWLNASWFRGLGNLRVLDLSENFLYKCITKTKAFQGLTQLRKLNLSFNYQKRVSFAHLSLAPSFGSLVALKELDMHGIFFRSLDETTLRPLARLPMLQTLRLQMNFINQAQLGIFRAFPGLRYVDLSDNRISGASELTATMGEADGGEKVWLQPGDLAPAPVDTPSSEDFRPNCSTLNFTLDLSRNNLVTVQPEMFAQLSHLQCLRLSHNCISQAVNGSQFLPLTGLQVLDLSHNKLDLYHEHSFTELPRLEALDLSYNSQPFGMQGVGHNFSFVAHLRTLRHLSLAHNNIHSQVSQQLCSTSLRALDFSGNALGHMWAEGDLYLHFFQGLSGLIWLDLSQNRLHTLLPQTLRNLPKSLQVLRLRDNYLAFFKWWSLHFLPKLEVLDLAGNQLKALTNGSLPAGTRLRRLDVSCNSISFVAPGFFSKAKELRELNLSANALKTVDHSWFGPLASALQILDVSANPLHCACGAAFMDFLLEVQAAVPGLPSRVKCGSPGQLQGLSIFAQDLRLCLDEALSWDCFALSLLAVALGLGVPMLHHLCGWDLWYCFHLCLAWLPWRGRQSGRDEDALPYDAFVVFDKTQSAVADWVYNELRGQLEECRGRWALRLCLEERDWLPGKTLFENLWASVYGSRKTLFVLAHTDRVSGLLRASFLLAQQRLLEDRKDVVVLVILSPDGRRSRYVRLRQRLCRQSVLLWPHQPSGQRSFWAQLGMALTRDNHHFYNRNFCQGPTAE

## Rat IgG2a isotype control (antibody)
[1]
  MFI: 142
[2]
  MFI: 490

## Rat IgG2b isotype control (antibody)
[1]
  MFI: 52
[2]
  MFI: 138
